Data: US20260256936A1, “BIOACTIVE CONJUGATES, PREPARATION METHOD AND USE THEREOF” (priority 2023, published 2026)
Read-outs that look alike come from different tables or passages of the source.

Legend:
Assay in all cases: cell-based or functional assay
[1] = molecular target: T1, B7H3 on B7H3-expressing cells (NCI-H358, NCI-H1048) (human, UniProt Q5ZPR3 29-534)
T1 sequence (looked up): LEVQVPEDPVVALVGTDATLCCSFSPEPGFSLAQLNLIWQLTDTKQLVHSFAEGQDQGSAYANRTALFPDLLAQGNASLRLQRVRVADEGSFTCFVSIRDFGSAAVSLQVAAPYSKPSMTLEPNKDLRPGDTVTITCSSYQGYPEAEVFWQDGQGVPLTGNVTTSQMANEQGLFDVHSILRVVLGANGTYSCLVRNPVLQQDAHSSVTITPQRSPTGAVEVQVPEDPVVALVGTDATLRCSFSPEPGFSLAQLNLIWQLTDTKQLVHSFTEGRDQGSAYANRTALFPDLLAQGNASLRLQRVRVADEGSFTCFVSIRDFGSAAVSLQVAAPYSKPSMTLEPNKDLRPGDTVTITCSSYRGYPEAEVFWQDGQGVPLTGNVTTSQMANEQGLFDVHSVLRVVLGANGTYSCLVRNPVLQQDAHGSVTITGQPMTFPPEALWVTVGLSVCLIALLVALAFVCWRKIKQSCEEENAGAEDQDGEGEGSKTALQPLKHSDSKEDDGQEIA

[2] = molecular target: T2, CLL1 on CLL1-expressing cells (U937, HL60) (human, UniProt Q5QGZ9 1-265)
T2 sequence (looked up): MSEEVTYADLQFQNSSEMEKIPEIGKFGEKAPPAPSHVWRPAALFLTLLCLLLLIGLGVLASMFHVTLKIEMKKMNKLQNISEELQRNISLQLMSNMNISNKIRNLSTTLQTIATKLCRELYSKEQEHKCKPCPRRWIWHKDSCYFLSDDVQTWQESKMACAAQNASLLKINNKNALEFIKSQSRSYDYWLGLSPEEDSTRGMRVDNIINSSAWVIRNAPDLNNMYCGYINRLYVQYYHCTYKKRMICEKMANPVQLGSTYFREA

[3] = molecular target: T2, CLL1 on CLL1-expressing cells (U937, …); remark: listed apart in the source
[4] = molecular target: T2, CLL1 on CLL1-expressing cells (U937, …); remark: listed apart in the source
[5] = molecular target: T2, CLL1 on CLL1-expressing cells (U937, …); remark: listed apart in the source

B1: ADC4-1 (antibody, human IgG1, kappa, V domains shown)
VH: QVQLVQSGAEVKKPGSSVKVSCKASGYTFTNYVMHWVRQAPGQGLEWMGYINPYNDDVKYNEKFKGRVTITADESTSTAYMELSSLRSEDTAVYYCARWGYYGSPLYYFDYWGQGTLVTVSS
VL: EIVLTQSPATLSLSPGERATLSCRASSRLIYMHWYQQKPGQAPRPLIYATSNLASGIPARFSGSGSGTDFTLTISSLEPEDFAVYYCQQWNSNPPTFGQGTKVEIKR
modifications: conjugator-linker-payload on cysteine thiols after TCEP reduction; positions not given
In the case of B1, the “EC50 (nM) direct cellular killing, NCI-H358” value (shortened to “EC50 … NCI-H358”) [1] is reported as 0.1 nM, the “EC50 (nM) direct cellular killing, NCI-H1048” value [1] is reported as 0.6 nM and the “Emax (%) direct cellular killing, NCI-H358” value [1] is reported as 82.8%. For the same binder, the “Emax (%) direct cellular killing, NCI-H1048” value [1] was 83.6%.

B2: ADC4-2 (antibody, human IgG1, kappa, V domains shown)
VH: QVQLVQSGAEVKKPGSSVKVSCKASGYTFTNYVMHWVRQAPGQGLEWMGYINPYNDDVKYNEKFKGRVTITADESTSTAYMELSSLRSEDTAVYYCARWGYYGSPLYYFDYWGQGTLVTVSS
VL: EIVLTQSPATLSLSPGERATLSCRASSRLIYMHWYQQKPGQAPRPLIYATSNLASGIPARFSGSGSGTDFTLTISSLEPEDFAVYYCQQWNSNPPTFGQGTKVEIKR
modifications: conjugator-linker-payload on cysteine thiols after TCEP reduction; positions not given
With B2 the “EC50 … NCI-H358” value [1] was 0.1 nM, the “Emax (%) direct cellular killing, NCI-H358” value [1] was 81% and the “Emax (%) direct cellular killing, NCI-H1048” value [1] was 62%.

B3: ADC4-3 (antibody, human IgG1, kappa, V domains shown)
VH: QVQLVQSGAEVKKPGSSVKVSCKASGYTFTNYVMHWVRQAPGQGLEWMGYINPYNDDVKYNEKFKGRVTITADESTSTAYMELSSLRSEDTAVYYCARWGYYGSPLYYFDYWGQGTLVTVSS
VL: EIVLTQSPATLSLSPGERATLSCRASSRLIYMHWYQQKPGQAPRPLIYATSNLASGIPARFSGSGSGTDFTLTISSLEPEDFAVYYCQQWNSNPPTFGQGTKVEIKR
modifications: conjugator-linker-payload on cysteine thiols after TCEP reduction; positions not given
For B3, the “EC50 … NCI-H358” value [1] was 0.1 nM, the “EC50 (nM) direct cellular killing, NCI-H1048” value [1] was 1.6 nM and the “Emax (%) direct cellular killing, NCI-H358” value [1] was 79.9%. The “Emax (%) direct cellular killing, NCI-H1048” value [1] was 80%.

B4: ADC3-2 (antibody, human IgG1, kappa, V domains shown)
VH: EVQLVQSGAEVKKPGASVKVSCKASGYSFTDYYMHWVRQAPGQGLEWIGRINPYAGAAFYSQNFKDRVTLTVDTSTSTAYLELSSLRSEDTAVYYCAIERGADLEGYAMDYWGQGTLVTVSS
VL: DIQMTQSPSSLSASVGDRVTITCRASQSVSTSSYNYMHWYQQKPGKPPKLLIKYASNLESGVPSRFSGSGSGTDFTLTISSLQPEDFATYYCQHSWEIPLTFGQGTKVEIKR
modifications: conjugator-linker-payload on cysteine thiols after TCEP reduction; positions not given
In the case of B4, the “EC50 (nM) direct cellular killing, HL60” value [2] is reported as 8.2 nM, the “EC50 (nM) direct cellular killing, U937” value [2] is reported as 0.2 nM and the “Emax (%) direct cellular killing, HL60” value [2] is reported as 55.9%.

B5: ADC3-8 (antibody, human IgG1, kappa, V domains shown)
VH: EVQLVQSGAEVKKPGASVKVSCKASGYSFTDYYMHWVRQAPGQGLEWIGRINPYAGAAFYSQNFKDRVTLTVDTSTSTAYLELSSLRSEDTAVYYCAIERGADLEGYAMDYWGQGTLVTVSS
VL: DIQMTQSPSSLSASVGDRVTITCRASQSVSTSSYNYMHWYQQKPGKPPKLLIKYASNLESGVPSRFSGSGSGTDFTLTISSLQPEDFATYYCQHSWEIPLTFGQGTKVEIKR
modifications: conjugator-linker-payload on cysteine thiols after TCEP reduction; positions not given
In the case of B5, the “EC50 (nM) direct cellular killing, HL60” value [3] is reported as 0.1 nM and the “EC50 (nM) direct cellular killing, U937” value [3] is reported as 0.2 nM.

B6: ADC3-7 (antibody, human IgG1, kappa, V domains shown)
VH: EVQLVQSGAEVKKPGASVKVSCKASGYSFTDYYMHWVRQAPGQGLEWIGRINPYAGAAFYSQNFKDRVTLTVDTSTSTAYLELSSLRSEDTAVYYCAIERGADLEGYAMDYWGQGTLVTVSS
VL: DIQMTQSPSSLSASVGDRVTITCRASQSVSTSSYNYMHWYQQKPGKPPKLLIKYASNLESGVPSRFSGSGSGTDFTLTISSLQPEDFATYYCQHSWEIPLTFGQGTKVEIKR
modifications: conjugator-linker-payload on cysteine thiols after TCEP reduction; positions not given
With B6 the “EC50 (nM) direct cellular killing, HL60” value [3] was 0.4 nM and the “EC50 (nM) direct cellular killing, U937” value [3] was 0.3 nM.

B7: ADC3-3 (antibody, human IgG1, kappa, V domains shown)
VH: EVQLVQSGAEVKKPGASVKVSCKASGYSFTDYYMHWVRQAPGQGLEWIGRINPYAGAAFYSQNFKDRVTLTVDTSTSTAYLELSSLRSEDTAVYYCAIERGADLEGYAMDYWGQGTLVTVSS
VL: DIQMTQSPSSLSASVGDRVTITCRASQSVSTSSYNYMHWYQQKPGKPPKLLIKYASNLESGVPSRFSGSGSGTDFTLTISSLQPEDFATYYCQHSWEIPLTFGQGTKVEIKR
modifications: conjugator-linker-payload on cysteine thiols after TCEP reduction; positions not given
With B7 the “EC50 (nM) direct cellular killing, HL60” value [2] was 1.6 nM and the “EC50 (nM) direct cellular killing, U937” value [2] was 0.2 nM.

B8: ADC3-1 (antibody, human IgG1, kappa, V domains shown)
VH: EVQLVQSGAEVKKPGASVKVSCKASGYSFTDYYMHWVRQAPGQGLEWIGRINPYAGAAFYSQNFKDRVTLTVDTSTSTAYLELSSLRSEDTAVYYCAIERGADLEGYAMDYWGQGTLVTVSS
VL: DIQMTQSPSSLSASVGDRVTITCRASQSVSTSSYNYMHWYQQKPGKPPKLLIKYASNLESGVPSRFSGSGSGTDFTLTISSLQPEDFATYYCQHSWEIPLTFGQGTKVEIKR
modifications: conjugator-linker-payload on cysteine thiols after TCEP reduction; positions not given
In the case of B8, the “EC50 (nM) direct cellular killing, HL60” value [2] is reported as 5.7 nM and the “EC50 (nM) direct cellular killing, U937” value [2] is reported as 0.5 nM.

B9: ADC3-12 (antibody, human IgG1, kappa, V domains shown)
VH: EVQLVQSGAEVKKPGASVKVSCKASGYSFTDYYMHWVRQAPGQGLEWIGRINPYAGAAFYSQNFKDRVTLTVDTSTSTAYLELSSLRSEDTAVYYCAIERGADLEGYAMDYWGQGTLVTVSS
VL: DIQMTQSPSSLSASVGDRVTITCRASQSVSTSSYNYMHWYQQKPGKPPKLLIKYASNLESGVPSRFSGSGSGTDFTLTISSLQPEDFATYYCQHSWEIPLTFGQGTKVEIKR
modifications: conjugator-linker-payload on cysteine thiols after TCEP reduction; positions not given
For B9, the “EC50 (nM) direct cellular killing, HL60” value [4] was 8 nM, the “EC50 (nM) direct cellular killing, U937” value [4] was 0.7 nM and the “Emax (%) direct cellular killing, HL60” value [4] was 81%.

B10: ADC3-11 (antibody, human IgG1, kappa, V domains shown)
VH: EVQLVQSGAEVKKPGASVKVSCKASGYSFTDYYMHWVRQAPGQGLEWIGRINPYAGAAFYSQNFKDRVTLTVDTSTSTAYLELSSLRSEDTAVYYCAIERGADLEGYAMDYWGQGTLVTVSS
VL: DIQMTQSPSSLSASVGDRVTITCRASQSVSTSSYNYMHWYQQKPGKPPKLLIKYASNLESGVPSRFSGSGSGTDFTLTISSLQPEDFATYYCQHSWEIPLTFGQGTKVEIKR
modifications: conjugator-linker-payload on cysteine thiols after TCEP reduction; positions not given
In the case of B10, the “EC50 (nM) direct cellular killing, HL60” value [4] is reported as 4.6 nM, the “EC50 (nM) direct cellular killing, U937” value [4] is reported as 12.8 nM and the “Emax (%) direct cellular killing, HL60” value [4] is reported as 43.9%. For the same binder, the “Emax (%) direct cellular killing, U937” value [4] was 78.7%.

B11: ADC3-5 (antibody, human IgG1, kappa, V domains shown)
VH: EVQLVQSGAEVKKPGASVKVSCKASGYSFTDYYMHWVRQAPGQGLEWIGRINPYAGAAFYSQNFKDRVTLTVDTSTSTAYLELSSLRSEDTAVYYCAIERGADLEGYAMDYWGQGTLVTVSS
VL: DIQMTQSPSSLSASVGDRVTITCRASQSVSTSSYNYMHWYQQKPGKPPKLLIKYASNLESGVPSRFSGSGSGTDFTLTISSLQPEDFATYYCQHSWEIPLTFGQGTKVEIKR
modifications: conjugator-linker-payload on cysteine thiols after TCEP reduction; positions not given
In the case of B11, the “EC50 (nM) direct cellular killing, U937” value [5] is reported as 1 nM and the “Emax (%) direct cellular killing, HL60” value [5] is reported as 79.8%.

B12: ADC3-9 (antibody, human IgG1, kappa, V domains shown)
VH: EVQLVQSGAEVKKPGASVKVSCKASGYSFTDYYMHWVRQAPGQGLEWIGRINPYAGAAFYSQNFKDRVTLTVDTSTSTAYLELSSLRSEDTAVYYCAIERGADLEGYAMDYWGQGTLVTVSS
VL: DIQMTQSPSSLSASVGDRVTITCRASQSVSTSSYNYMHWYQQKPGKPPKLLIKYASNLESGVPSRFSGSGSGTDFTLTISSLQPEDFATYYCQHSWEIPLTFGQGTKVEIKR
modifications: conjugator-linker-payload on cysteine thiols after TCEP reduction; positions not given
B12 was tested, and the “EC50 (nM) direct cellular killing, HL60” value [3] was 1.7 nM and the “EC50 (nM) direct cellular killing, U937” value [3] was 0.6 nM.

B13: ADC3-4 (antibody, human IgG1, kappa, V domains shown)
VH: EVQLVQSGAEVKKPGASVKVSCKASGYSFTDYYMHWVRQAPGQGLEWIGRINPYAGAAFYSQNFKDRVTLTVDTSTSTAYLELSSLRSEDTAVYYCAIERGADLEGYAMDYWGQGTLVTVSS
VL: DIQMTQSPSSLSASVGDRVTITCRASQSVSTSSYNYMHWYQQKPGKPPKLLIKYASNLESGVPSRFSGSGSGTDFTLTISSLQPEDFATYYCQHSWEIPLTFGQGTKVEIKR
modifications: conjugator-linker-payload on cysteine thiols after TCEP reduction; positions not given
With B13 the “EC50 (nM) direct cellular killing, HL60” value [2] was 1.1 nM, the “EC50 (nM) direct cellular killing, U937” value [2] was 0.2 nM and the “Emax (%) direct cellular killing, HL60” value [2] was 98%.

B14: ADC3-10 (antibody, human IgG1, kappa, V domains shown)
VH: EVQLVQSGAEVKKPGASVKVSCKASGYSFTDYYMHWVRQAPGQGLEWIGRINPYAGAAFYSQNFKDRVTLTVDTSTSTAYLELSSLRSEDTAVYYCAIERGADLEGYAMDYWGQGTLVTVSS
VL: DIQMTQSPSSLSASVGDRVTITCRASQSVSTSSYNYMHWYQQKPGKPPKLLIKYASNLESGVPSRFSGSGSGTDFTLTISSLQPEDFATYYCQHSWEIPLTFGQGTKVEIKR
modifications: conjugator-linker-payload on cysteine thiols after TCEP reduction; positions not given
B14 was tested, and the “EC50 (nM) direct cellular killing, HL60” value [4] was 1.2 nM, the “EC50 (nM) direct cellular killing, U937” value [4] was 0.7 nM and the “Emax (%) direct cellular killing, HL60” value [4] was 82.2%.
